In paper PMC8263776, “Calmodulin-dependent KCNE4 dimerization controls membrane targeting” (Scientific Reports, 2021) one finds response data, which are given here for one variant.

The chains are these.
B1: KCNE4-CFP [mouse] / KCNE4-YFP [mouse] (parent)
chain 1: MLRMEPLNSTYPSAAASSSPLESHVPSNSSGNGNEYFYILVVMSFYGVFLIGIMLGYMKSKRREKKSSLLLLYKDEERLWGEAMKPLPMMSGLRSGQVPMMLNMLQESVAPALSCTLCSMEGDSVSSESSSPDVHLPIQEEGADDELEETSETPLNDSSEGSSENIHQNS
chain 2: B1 chain 1

The variants in this experiment derive from B1. The experiment can be described thus: FRET (CFP/YFP) in cells. The following applies: with KCNE4-YFP [mouse]; HEK-293 cells; n > 25 cells; parent: 12; read off a plot.
As to chain 1 L69A L70A L71A L72A, the response was 7.2%.
